Test results as given in patent US6495144B2, “EBNA2 peptides and methods of using same” (Johns Hopkins University School of Medicine, priority 1996, dated 2002).
Where no end group is shown, it is not given here.

Tests used:
EBNA2/CBF1 complex = biological target: T1, EBNA2/CBF1 complex (Homo sapiens, UniProt Q06330); assay: EMSA competition of synthetic peptides for EBNA2/CBF1 complex formation; format: binding; settings: for competition for EBNA2/CBF1 complex formation in EMSA, in words: 1.25-10 μg synthetic peptide
T1 construct: and heparin-agarose purified CBF1; endogenous in cells; host or cells: CBF1: heparin-agarose purified cell protein; EBNA2 252-425: in vitro translation
Procedure: FIG. 8 is an EMSA that examines the ability of synthetic peptides representing CR5 (PEP.CR5), CR6 (PEP.CR6), mutant CR6 (CR6WW323SR) (PEP.CR6WW>SR), CR7 (PEP.CR7), and a control, nonconserved region comprising amino acids 265-279 (CONTROL) to compete for EBNA2/CBF1 complex formation. Increasing amounts of peptide (i.e., 1.25, 2.5, 5.0 and 10 μg; black triangles) were added to the binding reactions containing the Cp CBF1 binding site probe, in vitro translated wild-type EBNA2 (i.e., corresponding to amino acids 252-425) and heparin-agarose purified CBF1.
CR6 could perform this function by generating a specific secondary or tertiary structure that facilitates interaction (e.g., a lock and key model of interaction). Alternately, CR6 could mediate direct protein-protein contacts, perhaps through the formation of a tryptophan bridge (Corina et al., Virology, 197, 391-396 (1993)). To further examine the proposed contributions of CR5, CR6, and CR7 in EBNA2 interaction, and to probe the role of CR6, five 10-15 amino acid peptides were synthesized. The peptides were tested for their ability to compete with a full length EBNA2 protein for complex formation with CBF1. The relative location of the peptides in the EBNA2 protein is illustrated in FIG. 2, and the exact position of the sequences can be determined from FIG. 5. The peptides are as follows: a control peptide comprised of amino acids 265-279 (i.e., Ser Thr Pro Asn Asp Pro Asp Ser Pro Glu Pro Xaa Ser Pro Thr [SEQ ID NO:8], wherein Xaa is Arg or Pro); a CR5 peptide comprised of amino acids 299-314 (i.e., Ala Pro Ala Gln Pro Pro Pro Gly Ile Ile Asn Asp Gln Gln Leu [SEQ ID NO:9]); a CR6 peptide comprised of amino acids 318-327 (i.e., Pro Ser Gly Pro Pro Trp Trp Pro Pro Ile [SEQ ID NO:6]); a CR6 WW323SR peptide comprised of amino acids 318-327 (i.e., Pro Ser Gly Pro Pro Ser Arg Pro Pro Ile [SEQ ID NO:10]); and a CR7 peptide comprised of amino acids 380-391 (i.e., Pro Ser Met Pro Glu Leu Ser Pro Val Leu Gly Leu [SEQ ID NO:11]).
Increasing amounts of the peptides were added to the binding reaction mixtures which were then analyzed using an EMSA (FIG. 8). […] It is known that EBNA2 can interact with CBF1 in solution (Grossman et al., supra; Henkel et al., supra). A typical binding reaction presumably contains both DNA-bound and non-DNA-bound EBNA2/CBF1 complexes.

[1] = biological target: T2, EBNA2 interaction with CBF1 in solution (Homo sapiens, UniProt Q06330); assay: GST affinity assay with GST-EBNA2 (252-425) and 35S-labeled in vitro translated CBF1; format: binding
T2 construct: made in house; host or cells: CBF1: in vitro translation
T2 sequence (Q06330 whole entry): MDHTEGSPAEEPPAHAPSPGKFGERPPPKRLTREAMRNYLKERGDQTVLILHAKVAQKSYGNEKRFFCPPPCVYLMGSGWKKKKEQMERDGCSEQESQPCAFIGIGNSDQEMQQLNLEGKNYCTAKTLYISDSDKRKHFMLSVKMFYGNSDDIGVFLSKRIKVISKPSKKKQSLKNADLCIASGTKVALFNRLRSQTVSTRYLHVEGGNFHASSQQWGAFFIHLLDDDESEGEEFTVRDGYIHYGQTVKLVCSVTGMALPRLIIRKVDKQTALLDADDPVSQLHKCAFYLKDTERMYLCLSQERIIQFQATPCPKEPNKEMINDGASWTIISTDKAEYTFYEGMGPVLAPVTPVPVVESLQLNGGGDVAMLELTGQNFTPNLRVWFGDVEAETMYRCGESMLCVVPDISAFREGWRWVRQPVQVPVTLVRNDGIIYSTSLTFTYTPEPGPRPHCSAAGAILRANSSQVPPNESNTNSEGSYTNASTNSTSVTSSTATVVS

T1 sequence (Q06330 whole entry, one chain of several): as the sequence (Q06330 whole entry) above

Substance	competition for EBNA2/CBF1 complex formation in EMSA, in words (EBNA2/CBF1 complex)	competition for EBNA2 interaction with CBF1 in GST affinity assay, in words [1]	EBNA2/CBF1 complex eliminated by competition (EBNA2/CBF1 complex; 1.25-10 μg synthetic peptide added to binding reaction) [%]
APAQPPPGIINDQQL [CR5 peptide]	Neither the control peptide nor the peptides spanning CR5 or CR7 had any effect on the formation of the EBNA2/CBF1 complex		
PSGPPSRPPI [CR6 WW323SR peptide]	abolished the ability of the peptide to compete with EBNA2 for interaction with CBF1	abolished the ability of the peptide to compete with EBNA2 for interaction with CBF1	
PSGPPWWPPI [CR6 peptide]	regenerating the DNA-bound CBF1 complex to the levels seen in the absence of added EBNA2	could compete for EBNA2 interaction with CBF1 in solution	40
Pro Ser Met Pro Glu Leu Ser Pro Val Leu Gly Leu [CR7 peptide]	Neither the control peptide nor the peptides spanning CR5 or CR7 had any effect on the formation of the EBNA2/CBF1 complex		
Ser Thr Pro Asn Asp Pro Asp Ser Pro Glu Pro Xaa Ser Pro Thr [control peptide, reference compound]	Neither the control peptide nor the peptides spanning CR5 or CR7 had any effect on the formation of the EBNA2/CBF1 complex		
